These are literature values, as cited in patent US20080089848A1, “INTRATHECAL INJECTION OF MICROBUBBLES” (priority 2006, published 2008).

The conditions of data set [1]: infusion of tPA and microbubbles.
Data set [2] concerns stroke. Conditions: intracisternal injection into the cisterna magna, rats.

B1: tPA: thrombolytic agent (protein, UniProt P00750 36-562, looked up)
Tissue-type plasminogen …: SYQVICRDEKTQMIYQQHQSWLRPVLRSNRVEYCWCNSGRAQCHSVPVKSCSEPRCFNGGTCQQALYFSDFVCQCPEGFAGKCCEIDTRATCYEDQGISYRGTWSTAESGAECTNWNSSALAQKPYSGRRPDAIRLGLGNHNYCRNPDRDSKPWCYVFKAGKYSSEFCSTPACSEGNSDCYFGNGSAYRGTHSLTESGASCLPWNSMILIGKVYTAQNPSAQALGLGKHNYCRNPDGDAKPWCHVLKNRRLTWEYCDVPSCSTCGLRQYSQPQFRIKGGLFADIASHPWQAAIFAKHRRSPGERFLCGGILISSCWILSAAHCFQERFPPHHLTVILGRTYRVVPGEEEQKFEVEKYIVHKEFDDDTYDNDIALLQLKSDSSRCAQESSVVRTVCLPPADLQLPDWTECELSGYGKHEALSPFYSERLKEAHVRLYPSSRCTSQHLLNRTVTDNMLCAGDTRSGGPQANLHDACQGDSGGPLVCLNDGRMTLVGIISWGLGCGQKDVPGVYTKVTNYLDWIRDNMRP
Turning to B1, the clot lysis result in data set [1] is given as “accelerate clot lysis”.

B2: BMP-7: bone morphogenetic protein (protein, UniProt P18075 293-431, looked up)
Bone morphogenetic protein 7: STGSKQRSQNRSKTPKNQEALRMANVAENSSSDQRQACKKHELYVSFRDLGWQDWIIAPEGYAAYYCEGECAFPLNSYMNATNHAIVQTLVHFINPETVPKPCCAPTQLNAISVLYFDDSSNVILKKYRNMVVRACGCH
Regarding B2, the “functional recovery of neurons after stroke” value in data set [2] is “promotes functional recovery”.
